Changes are numbered by the printed parent chain. Values joined by “and” are separate entries in the source; they are usually repeats but may differ in a detail not shown here. Equal entries are not always repeated.
Legend:
Details in all cases: both partners purified
[1] = target: T1, recombinant full length human vimentin, His-tagged (human, UniProt P08670 1-466); assay: SPR; Biacore3000; vimentin amine-coupled to CM5 chip; CD443MUT 0.46–123 µM injected; 50 mM Tris, 150 mM NaCl, pH 8.0; parallel two-site binding model and equilibrium analysis (equation 1)
T1 construct: vimentin, human, full length; The oligomeric state in the assays is not measured; the discussion supposes unit-length filaments; also called recombinant vimentin; source: expressed using pET15b vector

[2] = target: T1, recombinant full length human vimentin, …; assay: as above; remark: listed apart in the source
[3] = target: T1, recombinant full length human vimentin, …; assay: ITC; 50 mM Tris, 150 mM NaCl, pH 8.0, 25°C; two preparations of CD443MUT (A, B), two pairs of concentrations each; n is vimentin/CD443MUT (mol/mol)
[4] = target: T1, recombinant full length human vimentin, …; assay: pull-down; GST-CD44HABD or GST-CD443MUT with recombinant vimentin

T1 sequence (P08670 whole entry): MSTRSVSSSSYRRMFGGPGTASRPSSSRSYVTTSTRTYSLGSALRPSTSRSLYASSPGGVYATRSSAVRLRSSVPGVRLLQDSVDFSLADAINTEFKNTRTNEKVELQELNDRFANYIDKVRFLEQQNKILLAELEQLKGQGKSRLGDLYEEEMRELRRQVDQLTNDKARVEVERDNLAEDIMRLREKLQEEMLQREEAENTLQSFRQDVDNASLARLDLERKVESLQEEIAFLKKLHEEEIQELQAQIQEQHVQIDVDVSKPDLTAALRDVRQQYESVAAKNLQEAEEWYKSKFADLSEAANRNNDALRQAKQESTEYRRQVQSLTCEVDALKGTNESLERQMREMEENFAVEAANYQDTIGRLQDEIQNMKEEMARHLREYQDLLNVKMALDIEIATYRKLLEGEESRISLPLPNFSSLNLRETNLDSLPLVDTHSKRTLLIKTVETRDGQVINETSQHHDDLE

B1: CD443MUT (CD44HABD^R41AR78SY79S), recombinant, unlabeled (domain or fragment, human, UniProt P16070 21-132, looked up)
chain: QIDLNITCRFAGVFHVEKNGAYSISRTEAADLCKAFNSTLPTMAQMEKALSIGFETCSSGFIEGHVVIPRIHPNSICAANNTGVYILTSNTSQYDTYCFNASAPPEEDCTSV
notes: Two preparations (A, B) were used in ITC; also called CD44HABD Arg41Ala, Arg78Ser, Tyr79Ser triple mutant; source: expressed using pET11c vector
KD from equilibrium response values (equation 1) [1]: 15 ± 2 µM
KD of the high-affinity site (Kdiss1/Kass1) [1]: 0.074 µM
stoichiometry N [1]: 6.2 mol/mol
KD of the low affinity site [2]: 15 µM
stoichiometry N [3]: 9.9 mol/mol and 7.2 mol/mol

B2: GST-tagged CD44 hyaluronan binding domain 21–132 (CD44HABD) (domain or fragment, human, UniProt P16070 21-132, looked up)
chain: B1 chain with A21R, S58R, S59Y
notes: also called GST-HABD; CD44 HABD 21–132; source: recombinant GST fusion-protein, purified as described [27]
binding result [4]: binds

Source: article PMC3244446, “Soluble CD44 Interacts with Intermediate Filament Protein Vimentin on Endothelial Cell Surface” (PLoS ONE, 2011)
